{"source": "patent US9505841B2", "about": "“Use of an anti-Ang2 antibody” (Samsung Electronics Co., Ltd., priority 2013, dated 2016)", "molecules": {"B1": {"name": "10D6: mouse anti-Ang2 monoclonal antibody from hybridoma KCLRF-BP-00295; heavy chain variable region SEQ ID NO: 7, light chain variable region SEQ ID NO: 9 (antibody, V domains shown)", "VH": "DVQLQESGPGLVKPSQSLSLTCTVTGYSITSDYAWNWIRQFPGNKLEWMGYINYSGNTDYNPSLKSRSSITRDTSKNQFFLQLNSVTTGDTATYYCARGNFEGAMDYWGQGTSVTVSS", "VL": "SIVMTQTPKFLLVSAGDRVTITCKASQSVSNDVAWYQQKPGQSPKLLIYYASNRYPGVPDRFTGSGYGTDFTFTISTVQAEDLAVYFCQQDYSSPWTFGGGTKLEIK", "modifications": "Synthetic (Heavy chain variable region of an anti-Ang2 antibody); Synthetic (Light chain variable region of anti-Ang2 antibody)"}}, "key": {"Ang2:Tie2 receptor": {"molecular_target": "T1, Ang2:Tie2 receptor (Homo sapiens, UniProt O15123)", "T1 construct": "purchased R&D systems (Tie2-Fc)", "T1 sequence (O15123 19-496)": "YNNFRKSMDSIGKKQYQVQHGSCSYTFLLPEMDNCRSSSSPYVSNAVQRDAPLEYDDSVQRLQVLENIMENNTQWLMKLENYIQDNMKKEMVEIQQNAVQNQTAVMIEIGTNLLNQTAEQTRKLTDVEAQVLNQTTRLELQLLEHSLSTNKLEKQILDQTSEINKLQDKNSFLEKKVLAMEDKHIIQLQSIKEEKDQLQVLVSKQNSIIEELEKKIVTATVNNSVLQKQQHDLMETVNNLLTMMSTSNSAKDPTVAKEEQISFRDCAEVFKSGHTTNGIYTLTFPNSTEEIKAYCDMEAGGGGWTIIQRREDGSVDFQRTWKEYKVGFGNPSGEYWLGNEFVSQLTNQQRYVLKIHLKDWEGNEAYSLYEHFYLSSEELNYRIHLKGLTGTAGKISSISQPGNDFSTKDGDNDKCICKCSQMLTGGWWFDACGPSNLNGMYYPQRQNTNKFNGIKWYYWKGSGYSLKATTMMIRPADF", "T1 sequence (Q02763 23-745 partner limits assumed)": "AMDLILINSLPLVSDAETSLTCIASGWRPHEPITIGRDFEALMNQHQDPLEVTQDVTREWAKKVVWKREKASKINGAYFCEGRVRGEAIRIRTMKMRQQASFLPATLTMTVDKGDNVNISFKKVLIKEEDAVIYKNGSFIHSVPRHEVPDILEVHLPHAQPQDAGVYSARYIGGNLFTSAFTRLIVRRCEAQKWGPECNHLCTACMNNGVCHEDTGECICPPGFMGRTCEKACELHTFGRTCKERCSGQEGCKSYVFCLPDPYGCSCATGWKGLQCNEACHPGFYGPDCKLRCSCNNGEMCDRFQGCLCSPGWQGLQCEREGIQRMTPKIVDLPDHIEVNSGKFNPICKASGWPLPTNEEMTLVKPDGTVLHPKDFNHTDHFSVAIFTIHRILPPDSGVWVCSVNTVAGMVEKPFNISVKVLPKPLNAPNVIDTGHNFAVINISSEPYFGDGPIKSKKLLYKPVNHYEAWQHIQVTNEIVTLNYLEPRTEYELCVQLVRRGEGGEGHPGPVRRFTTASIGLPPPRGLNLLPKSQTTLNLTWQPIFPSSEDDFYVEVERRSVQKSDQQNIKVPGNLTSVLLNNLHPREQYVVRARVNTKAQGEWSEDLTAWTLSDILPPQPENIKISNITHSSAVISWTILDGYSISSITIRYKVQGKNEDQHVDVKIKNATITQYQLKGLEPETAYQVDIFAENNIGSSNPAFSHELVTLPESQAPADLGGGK", "assay": "ELISA for formation of 10D6-Ang2-Tie2 complex", "assay_type": "binding", "conditions": "Tie2-Fc coated; 0.25 ug/ml Ang2, 2 ug/ml antibody", "description": "A 96-well MaxiSorp™ flat-bottom plate (Nunc) was coated with 4 ug/ml of Tie2-Fc (R&D systems) or BSA (Sigma). Then, the plate was washed five times with 0.05% (v/v) Tween-20-containing PBS (Phosphate Buffer Saline) and blocked with 1% (v/v) BSA (Bovine serum albumin; Sigma)-containing PBS at a room temperature for 2 hours. 0.25ug/ml of Ang2 and 2ug/ml of antibody 10D6 were added to each well of the plate, which was allowed to react at a room temperature for 2 hours and then washed five times with PBST. After that, an anti-mouse IgG antibody (Sigma) conjugated with HRP diluted in 1% (v/v) BSA-containing PBS at a ratio of 1:5,000 (v/v) was added in an amount of 100 ul to each well to react at a room temperature for 1 hour and then, the plate was washed five times with PBST. Lastly, 100 ul (microliter) of TMB substrate (Cell Signaling) was added to each well of the plate to induce color development for 3 min. and then, the reaction was ceased by the addition of 100 ul of Stop solution (Cell Signaling) and OD450 values were measured on a plate reader (Molecular Devices)."}, "[1]": {"test_system": "human colorectal cancer cell line Colo205", "assay": "Colo205 colorectal cancer xenograft tumor growth", "assay_type": "in vivo, mouse", "conditions": "BALB/c nude mice; 10 mg/kg intraperitoneal twice a week", "description": "To see the tumor growth inhibitory effects of Ang2 antibody, a colorectal cancer xenograft model using a human colorectal cancer cell line Colo205 (ATCC) was employed.\nThe Colo205 cell line was cultured using 10% FBS (Gibco)-supplemented RPMI-1640 (Gibco) media. 5×10^5 of Colo205 cell line were re-suspended in 100 ul of serum-free media and then subcutaneously injected into anesthetic 4˜5-week-old BALB/c nude mice (Shanghai SLAC Laboratory Animal Co. Ltd.) anesthetized with 1-2% isoflurane. When the size of tumors reached 100˜200 mm^3, anti-Ang2 antibody (10D6) was injected at the concentration of 10 mg/kg via an intraperitoneal injection twice a week and the size of the tumors was measured.\nThe size of tumor (V) was calculated using the following formula: V=(length×width^2)/2"}, "LLC tumor tissues": {"test_system": "LLC tumor tissues", "assay": "H&E staining of necrotic region in LLC tumors", "assay_type": "in vivo, mouse", "conditions": "10 mg/kg i.p., five administrations, compared to Fc- or 4H10-treated group", "description": "To see the effects of the structurally and functionally normalized blood vessels in tumor by treatment of antibody 10D6 on the tumor tissues, referring to the method of Example 14, LLC tumor cells were subcutaneously injected into mice. When the size of tumors reached 50˜100 mm^3, anti-Ang2 antibody 10D6 was injected at the concentration of 10 mg/kg via an intraperitoneal injection three times a week and the size of the tumors was measured. After administering the antibody five-times, the tumor sections were stained with H&E according to standard protocol, and then, the Eosin+ cell necrotic region in tumor tissues was confirmed. For comparison, the same experiment was performed to a control group treated with Fc of IgG1 and a comparative group treated with antibody 4H10 (refer to Example 3)."}, "ICAM-1": {"test_system": "ICAM-1", "assay": "LPS-induced mRNA expression of ICAM-1 in HUVEC (qPCR)", "assay_type": "cell-based, human", "conditions": "100 ng/ml LPS 5 hours, 0.2 ug/ml Ang1 or 0.1 ug/ml Ang2 + 0.5 ug/ml antibody", "description": "To see anti-inflammatory effects by antibody 10D6, HUVEC (ATCC) cells (4×10^5) were treated with Ang2 alone or Ang2 together with antibody 10D6, and a group in which Ang1 and Ang2 (R&D systems) and Regeneron Co. antibody (RG antibody) were co-treated was included as a control group. HUVEC cells were treated with 0.2 ug/ml of Ang1, 0.1 ug/ml of Ang2, or 0.1 ug/ml of Ang2 and 0.5 ug/ml of antibody, respectively and after 30-min. pre-incubation, they were treated with 100 ng/ml of LPS (Sigma) to induce inflammatory response and incubated for 5 hours.\nThe degree of the inflammatory response was identified by measuring the mRNA expression degree of an inflammatory adhesion substance (ICAM-1, E-selectin). The cells were washed using PBS, RNA was extracted using RNeasy Mini kit (Qiagen), and among them, 2 ug of RNA was synthesized into cDNA using Transcriptor First Strand cDNA synthesis kit (Roche). qPCR reaction was performed using RT2 SYBR™ Green Mastermix (Qiagen) and LightCycler™ 480 Real-Time PCR System (Roche). As an internal control for calibrating the amount of RNA in a sample, HPRT1 was used, and qPCR complied with the following procedures with regard to all the primers.\nStep 1: 95° C., 10 min; Step 2 (45 cycles): Step 2-1: 95° C., 15 sec; Step 2-2: 60° C., 1 min; Step 3: 65° C., 15 sec; Step 4: 95° C., continuous (every 20° C.); Step 6: 40° C., 10 sec."}, "HUVEC monolayer": {"test_system": "HUVEC monolayer", "assay": "In vitro vascular permeability assay (FITC-dextran)", "assay_type": "cell-based, human", "conditions": "200 ng/ml Ang1 alone or 200 ng/ml Ang2 + 1 ug/ml 10D6", "description": "To see the cell permeability suppression effects of antibody 10D6, in vitro vascular permeability assay kit (Millipore) was employed. HUVEC (ATCC) cells (5×10^4) were added to a collagen-coated transwell and cultured for 2 days to prepare a confluent monolayer. It was treated with 200 ng/ml of Ang2 or 200 ng/ml of Ang1 (R&D systems) alone, or 200 ng/ml of Ang2 and 1 ug/ml of antibody 10D6, pre-incubated for 30 min. and then, treated with 100 ng/ml of LPS (Lipopolysaccharide; Sigma) or 100 ng/ml TNF-a (R&D systems) to induce the permeability of HUVEC monolayer. LPS or TNF-a weakens binding between HUVEC cells to form a gap therebetween, thereby increasing the migration of materials in the HUVEC monolayer. After 6-hour incubation for the LPS treatment group and 22-hour incubation for the TNF-a group, the upper chamber was treated with FITC-dextran (Millipore) and incubated for 18 min. The fluorescence of FITC-dextran migrated to the lower chamber was measured at 485/535 nm (Ex/Em) setting using an Envision 2104 multilabel Reader (Perkinelmer)."}}}
{"molecule": "B1", "values": [{"measurement": "formation of complex with Ang2 bound to Tie2", "setting": "Ang2:Tie2 receptor", "value": "formed a complex"}, {"measurement": "tumor growth in Colo205 xenograft", "setting": "[1]", "value": "inhibited the growth of colorectal cancer"}, {"measurement": "cell necrotic region in tumor tissues", "setting": "LLC tumor tissues", "value": "smaller"}, {"measurement": "expression of ICAM-1 induced by LPS", "setting": "ICAM-1", "value": "remarkably suppressed"}, {"measurement": "vascular permeability increased by LPS", "setting": "HUVEC monolayer; 100 ng/ml LPS, 6 hour", "value": "decreased to the control level"}, {"measurement": "vascular permeability increased by TNF-a", "setting": "HUVEC monolayer; 100 ng/ml TNF-a, 22 hour", "value": "decreased to the control level"}]}
